How the values were obtained:
[1] = biological target: GST-obscurin-Ig58/Ig59^WT (human) (UniProt Q5VST9); assay: pull-down; 12 ug GST fusion protein on glutathione-Sepharose with 5 ul of the translation reaction; 10 mM Tris-HCl pH 7.9, 150 mM NaCl, 0.5% NONIDET P-40, 1 mM DTT, 1.5 hrs at 4°C; anti-myc Western blot, densitometry normalised to GST protein
[2] = biological target: GST-linked titin ZIg9/ZIg10 (human) (UniProt Q8WZ42); assay: SPR; Nicoya OpenSPR, GST-linked titin ZIg9/ZIg10 immobilised on an Au-GST chip; obscurin Ig58/Ig59 injected at 50 ul/min; 20 mM Tris pH 7.5, 50 mM NaCl; 27°C (methods; 22°C in the legend of S11 Fig); 1:1 interaction model

Substance | bound fraction, fold over GST-Ig58/Ig59^MUT [1] | Kd [2]
myc-tagged titin domains ZIg9/ZIg10 (from UniProt Q8WZ42-12 1-35991) (domain or fragment) | 2 fold | 
obscurin Ig58/Ig59 (wild type) (from UniProt Q5VST9 1-7968) (domain or fragment) |  | 108 nM
obscurin Ig58/Ig59 p.Arg4444Trp (domain or fragment) |  | 1600 nM
